Usually Kd stands for the equilibrium constant for the complex coming apart.

Data set [1] deals with T1, PCBP2 (poly(C)-binding protein 2, hnRNP E2) (UniProt Q15366 1-365). Description: EMSA; 4 °C 25 min, 2.5 mM Mg2+, yeast tRNA and BSA; EMSA: 25 mM NaH2PO4 pH 8.0, 50 mM NaCl, 25 mM KCl, 2.5 mM MgCl2, 10 mM imidazole, 0.5 mM DTT, 0.5 mM PMSF, 7% glycerol, 0.5 U/uL RNasin, 75 ng/uL BSA, 100 ng/uL yeast tRNA; 4 °C 25 min (also 25 °C 15 min, 37 °C 10 min). Particulars: protein: recombinant; label: 5'-32P (EMSA); hairpins G56-C169 and U180-A218.
T1 sequence (Q15366 whole entry): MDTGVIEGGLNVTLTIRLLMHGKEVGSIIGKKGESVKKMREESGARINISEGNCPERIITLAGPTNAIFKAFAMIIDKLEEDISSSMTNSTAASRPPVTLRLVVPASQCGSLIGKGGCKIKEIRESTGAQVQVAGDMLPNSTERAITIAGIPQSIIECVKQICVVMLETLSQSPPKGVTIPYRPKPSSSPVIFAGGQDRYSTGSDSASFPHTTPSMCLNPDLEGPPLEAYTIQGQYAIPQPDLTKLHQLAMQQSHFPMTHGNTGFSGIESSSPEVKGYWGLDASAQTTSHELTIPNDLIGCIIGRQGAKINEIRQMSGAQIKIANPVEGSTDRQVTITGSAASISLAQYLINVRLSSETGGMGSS

Data set [2] has as its target T1, PCBP2 (poly(C)-binding protein 2, hnRNP …). Description: EMSA; 1000 and 2500 nM PCBP2, 4 °C; no change vs P1-Δ40p53; EMSA: 25 mM NaH2PO4 pH 8.0, 50 mM NaCl, 25 mM KCl, 2.5 mM MgCl2, 10 mM imidazole, 0.5 mM DTT, 0.5 mM PMSF, 7% glycerol, 0.5 U/uL RNasin, 75 ng/uL BSA, 100 ng/uL yeast tRNA; 4 °C 25 min (also 25 °C 15 min, 37 °C 10 min). Particulars: protein: recombinant, label: 5'-32P. (In general: A gel shift assay detects complexes by their altered migration in electrophoresis.)

The target is the same in data set [3]. Description: EMSA; no complex at 4-4000 nM; smeared shift at 5 and 10 uM; EMSA: 25 mM NaH2PO4 pH 8.0, 50 mM NaCl, 25 mM KCl, 2.5 mM MgCl2, 10 mM imidazole, 0.5 mM DTT, 0.5 mM PMSF, 7% glycerol, 0.5 U/uL RNasin, 75 ng/uL BSA, 100 ng/uL yeast tRNA; 4 °C 25 min (also 25 °C 15 min, 37 °C 10 min). To be noted: protein: recombinant; label: 5'-32P; hairpin.
For data set [4] the target is unchanged. Description: EMSA; 4 °C 25 min, 2.5 mM Mg2+; additional intermediate complexes; text also reports decreased binding ability at fixed protein (Fig 3c); EMSA: 25 mM NaH2PO4 pH 8.0, 50 mM NaCl, 25 mM KCl, 2.5 mM MgCl2, 10 mM imidazole, 0.5 mM DTT, 0.5 mM PMSF, 7% glycerol, 0.5 U/uL RNasin, 75 ng/uL BSA, 100 ng/uL yeast tRNA; 4 °C 25 min (also 25 °C 15 min, 37 °C 10 min). Particulars: protein: recombinant; label: 5'-32P; shortened hairpin; C74-G144 pair replaces U57-G168.

B1: P1-Δ40p53 RNA (structured_RNA)
RNA: GGCUAGAGCCACCGUCCAGGGAGCAGGUAGCUGCUGGGCUCCGGGGACACUUUGCGUUCGGGCUGGGAGCGUGCUUUCCACGACGGUGACACGCUUCCCUGGAUUGGCAGCCAGACUGCCUUCCGGGUCACUGCCAUGGAGGAGCCGCAGUCAGAUCCUAGCGUCGAGCCCCCUCUGAGUCAGGAAACAUUUUCAGACCUAUGGAAACUACUUCCUGAAAACAACGUUCUGUCCCCCUUGCCGUCCCAAGCAAUG
For the molecule B1, in data set [1], the Kd was found to be 0.095 ± 0.006 µM.

B2: P1-Δ40p53(L) RNA (structured_RNA)
RNA: GGCUAGAGCCACCGUCCAGGGAGCAGGUAGCUGCUGGGCUCCGGGGACACUUUGCGUUCGGGCUGGGAGCGUGCUUAAGCCGACGGUGACACGCUUCCCUGGAUUGGCAGCCAGACUGCCUUCCGGGUCACUGCCAUGGAGGAGCCGCAGUCAGAUCCUAGCGUCGAGCCCCCUCUGAGUCAGGAAACAUUUUCAGACCUAUGGAAACUACUUCCUGAAAACAACGUUCUGUCCCCCUUGCCGUCCCAAGCAAUG
In the case of B2, the binding result in data set [2] (AUG1 in internal loop) is given as “binds”.

B3: P1-Δ40p53(S) RNA (structured_RNA)
RNA: GGCUAGAGCCACCGUCCAGGGAGCAGGUAGCUGCUGGGCUCCGGGGACACUUUGCGUUCGGGCUGGGAGCGUGCUUUCCAUGGCGGUGACACGCUUCCCUGGAUUGGCAGCCAGACUGCCUUCCGGGUCACUGCCAUGGAGGAGCCGCAGUCAGAUCCUAGCGUCGAGCCCCCUCUGAGUCAGGAAACAUUUUCAGACCUAUGGAAACUACUUCCUGAAAACAACGUUCUGUCCCCCUUGCCGUCCCAAGCAAUG
With B3, the binding result in data set [2] (AUG1 in double-stranded region) is “binds”.

B4: isolated hairpin G56-C169 RNA (structured_RNA)
RNA: GUUCGGGCUGGGAGCGUGCUUUCCACGACGGUGACACGCUUCCCUGGAUUGGCAGCCAGACUGCCUUCCGGGUCACUGCCAUGGAGGAGCCGCAGUCAGAUCCUAGCGUCGAGC
Regarding B4, the Kd in data set [3] is more than 4 µM.

B5: P1-Δ40p53(Δ57) RNA (structured_RNA)
RNA: GGCUAGAGCCACCGUCCAGGGAGCAGGUAGCUGCUGGGCUCCGGGGACACUUUGCGCUUUCCACGACGGUGACACGCUUCCCGGUCACUGCCAUGGAGGAGCCCCCUCUGAGUCAGGAAACAUUUUCAGACCUAUGGAAACUACUUCCUGAAAACAACGUUCUGUCCCCCUUGCCGUCCCAAGCAAUG
On to B5, for which the Kd in data set [4] amounted to 0.053 ± 0.006 µM.

Source of the values: article PMC8708005, “Poly(C)-binding Protein 2 Regulates the p53 Expression via Interactions with the 5′-Terminal Region of p53 mRNA”.
